The record followed here is patent publication US11472877 (Alector, dated 2022).

For one assay, the target named is T1, mouse TREM2 on BWZ cells (mouse, UniProt Q99NH8 19-227).
T1 construct: whole, on cells; also called BWZ Mouse TREM2
T1 sequence (looked up): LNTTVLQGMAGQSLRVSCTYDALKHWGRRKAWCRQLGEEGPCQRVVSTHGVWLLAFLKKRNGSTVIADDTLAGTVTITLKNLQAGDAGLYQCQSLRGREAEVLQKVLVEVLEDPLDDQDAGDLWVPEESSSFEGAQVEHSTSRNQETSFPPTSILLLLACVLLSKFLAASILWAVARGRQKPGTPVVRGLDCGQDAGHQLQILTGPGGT
Nature of the assay: FACS, BWZ cells. On the technique in general: In flow cytometry, cells or beads pass a laser one at a time.

The target of a further assay is T2, human TREM2 on BWZ cells (human, UniProt Q9NZC2 19-230).
T2 construct: whole, on cells; not tied to the cell line; also called BWZ Human TREM2
T2 sequence (looked up): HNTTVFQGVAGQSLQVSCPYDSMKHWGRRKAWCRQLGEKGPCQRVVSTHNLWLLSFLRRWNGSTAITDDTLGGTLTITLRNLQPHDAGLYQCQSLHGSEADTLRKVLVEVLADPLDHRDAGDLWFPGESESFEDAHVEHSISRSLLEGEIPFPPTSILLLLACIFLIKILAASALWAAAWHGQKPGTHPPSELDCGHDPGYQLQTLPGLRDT
Briefly: FACS, BWZ cells.

B1: T1-17 (antibody, IgG1, V domains shown)
VH: QVQLQESGPGLVKPSETLSLTCTVSGGSISSYYWSWIRQPPGKGLEWIGSIYYSGSTNYNPSLKSRVTISVDTSKNQFSLKLSSVTAADTAVYYCARGAPGGRHNWFDPWGQGTLVTVSS
VL: DIQMTQSPSSLSASVGDRVTITCQASQDISNYLNWYQQKPGKAPKLLIYDASNLATGVPSRFSGSGSGTDFTFTISSLQPEDIATYYCQQSDIHPRTFGGGTKVEIK
notes: huIgG1; also called TI-17; ADI-19084
Take B1: the binding result with mouse TREM2 on BWZ cells and with human TREM2 on BWZ cells was “no binding” throughout.

B2: T1-1 (antibody, IgG1, V domains shown)
VH: QVQLVQSGAEVKKPGSSVKVSCKASGGTFSSYAISWVRQAPGQGLEWMGGIIPIFGTANYAQKFQGRVTITADESTSTAYMELSSLRSEDTAVYYCARGQGSDHYYYGMDVWGQGTTVTVSS
VL: not shown
notes: huIgG1; also called TI-1; ADI-19067
As for B2, the binding result with mouse TREM2 on BWZ cells and in the assay with human TREM2 on BWZ cells was “no binding” in each case.

B3: T1-5 (antibody, IgG1, V domains shown)
VH: QVQLVQSGAEVKKPGASVKVSCKASGYTFTSYYMHWVRQAPGQGLEWMGVINPSGGSTSYAQKFQGRVTMTRDTSTSTVYMELSSLRSEDTAVYYCARESDGIDSYFDYWGQGTLVTVSS
VL: not shown
notes: huIgG1; also called TI-5; ADI-19071
With B3, the binding result with mouse TREM2 on BWZ cells and with human TREM2 on BWZ cells was “no binding” each time.

B4: T1-76 (antibody, IgG1, V domains shown)
VH: not shown
VL: DIQMTQSPSTLSASVGDRVTITCRASQSISSWLAWYQQKPGKAPKLLIYDASSLESGVPSRFSGSGSGTEFTLTISSLQPDDFATYYCQQHSTYSWTFGGGTKVEIK
notes: huIgG1; also called TI-76; ADI-19153
For the molecule B4, the binding result with mouse TREM2 on BWZ cells and in the assay with human TREM2 on BWZ cells was “no binding” each time.

B5: T1-2 (antibody, IgG1, V domains shown)
VH: QVQLVQSGAEVKKPGSSVKVSCKASGGTFSSYAISWVRQAPGQGLEWMGGIIPIFGTANYAQKFQGRVTITADESTSTAYMELSSLRSEDTAVYYCAREGGPRGASFNWFDPWGQGTLVTVSS
VL: EIVLTQSPGTLSLSPGERATLSCRASQSVSSSYLAWYQQKPGQAPRLLIYGASSRATGIPDRFSGSGSGTDFTLTISRLEPEDFAVYYCQQYLGFPPTFGGGTKVEIK
notes: huIgG1; also called TI-2; ADI-19068
Regarding B5, the binding result with mouse TREM2 on BWZ cells and with human TREM2 on BWZ cells was “no binding” each time.

B6: T1-22 (antibody, IgG1, V domains shown)
VH: QVQLQESGPGLVKPSETLSLTCTVSGGSISSYYWSWIRQPPGKGLEWIGHIYYSGSTNYNPSLKSRVTISVDTSKNQFSLKLSSVTAADTAVYYCARDAGRYYGSSSSWYFDLWGRGTLVTVSS
VL: EIVLTQSPGTLSLSPGERATLSCRASQSVSSSYLAWYQQKPGQAPRLLIYGASSRATGIPDRFSGSGSGTDFTLTISRLEPEDFAVYYCQQYLIPPITFGGGTKVEIK
notes: huIgG1; also called TI-22; ADI-19089
For B6, the binding result with mouse TREM2 on BWZ cells and in the assay with human TREM2 on BWZ cells was “no binding” each time.

B7: T1-15 (antibody, IgG1, V domains shown)
VH: EVQLVESGGGLVKPGGSLRLSCAASGFTFSSYSMNWVRQAPGKGLEWVSSISSSSSYIYYADSVKGRFTISRDNAKNSLYLQMNSLRAEDTAVYYCARRGGSYDAFQHWGQGTLVTVSS
VL: EIVLTQSPGTLSLSPGERATLSCRASQSVSSSYLAWYQQKPGQAPRLLIYGASSRATGIPDRFSGSGSGTDFTLTISRLEPEDFAVYYCQQAFISPPTFGGGTKVEIK
notes: huIgG1; also called TI-15; ADI-19082
As for B7, the binding result with mouse TREM2 on BWZ cells and in the assay with human TREM2 on BWZ cells was “no binding” throughout.

B8: T1-73 (antibody, IgG1, V domains shown)
VH: EVQLVESGGGLVQPGRSLRLSCAASGFTFDDYAMHWVRQAPGKGLEWVSGISWNSGSIGYADSVKGRFTISRDNAKNSLYLQMNSLRAEDTALYYCAKAPRMYGYFDLWGRGTSVTVSS
VL: DIQMTQSPSTLSASVGDRVTITCRASQSISSWLAWYQQKPGKAPKLLIYKASSLESGVPSRFSGSGSGTEFTLTISSLQPDDFATYYCQQYRTYPTFGGGTKVEIK
notes: huIgG1; also called TI-73; ADI-19149
As for B8, the binding result with mouse TREM2 on BWZ cells and in the assay with human TREM2 on BWZ cells was “no binding” each time.

B9: T1-74 (antibody, IgG1, V domains shown)
VH: EVQLVESGGGLVQPGRSLRLSCAASGFTFDDYAMHWVRQAPGKGLEWVSGISWNSGSIGYADSVKGRFTISRDNAKNSLYLQMNSLRAEDTALYYCAKGPRTRGYFDLWGRGTLVTVSS
VL: DIQMTQSPSTLSASVGDRVTITCRASQSISSWLAWYQQKPGKAPKLLIYKASSLESGVPSRFSGSGSGTEFTLTISSLQPDDFATYYCQQHSLLSITFGGGTKVEIK
notes: huIgG1; also called TI-74; ADI-19151
With B9, the binding result with mouse TREM2 on BWZ cells and with human TREM2 on BWZ cells was “no binding” throughout.

B10: T1-72 (antibody, IgG1, V domains shown)
VH: EVQLVESGGGLVQPGRSLRLSCAASGFTFDDYAMHWVRQAPGKGLEWVSGISWNSGDIGYADSVKGRFTISRDNAKNSLYLQMNSLRAEDTALYYCAKGPRMTHSYFDLWGRGTLVTVSS
VL: not shown
notes: huIgG1; also called TI-72; ADI-19148
As for B10, the binding result with mouse TREM2 on BWZ cells and in the assay with human TREM2 on BWZ cells was “no binding” throughout.

B11: T1-75 (antibody, IgG1, V domains shown)
VH: QVQLVESGGGLVQPGRSLRLSCAASGFTFDDYAMHWVRQAPGKGLEWVSGISWNSGDIGYADSVKGRFTISRDNAKNSLYLQMNSLRAEDTALYYCAKAPRTRWTYFDYWGQGTLVTVSS
VL: EIVLTQSPATLSLSPGERATLSCRASQSVSSYLAWYQQKPGQAPRLLIYDASNRATGIPARFSGSGSGTDFTLTISSLEPEDFAVYYCQHYNLWRTFGGGTKVEIK
notes: huIgG1; also called TI-75; ADI-19152
For the molecule B11, the binding result with mouse TREM2 on BWZ cells and with human TREM2 on BWZ cells was “no binding” in each case.

B12: T1-11 (antibody, IgG1, V domains shown)
VH: QLQLQESGPGLVKPSETLSLTCTVSGGSISSSSYYWGWIRQPPGKGLEWIGSIYYSGSTYYNPSLKSRVTISVDTSKNQFSLKLSSVTAADTAVYYCARSGEYGFDLWGRGTLVTVSS
VL: not shown
notes: huIgG1; also called TI-11; ADI-19078
In the case of B12, the binding result in the assay with mouse TREM2 on BWZ cells and in the assay with human TREM2 on BWZ cells was “no binding” each time.

B13: T1-78 (antibody, IgG1, V domains shown)
VH: QLQLQESGPGLVKPSETLSLTCTVSGGSISSSSYYWGWIRQPPGKGLEWIGSIYYSGSTYYNPSLKSRVTISVDTSKNQFSLKLSSVTAADTAVYYCARDLGQYEGYFDLWGRGTLVTVSS
VL: not shown
notes: huIgG1; also called TI-78; ADI-19155
As to B13, the binding result in the assay with mouse TREM2 on BWZ cells and with human TREM2 on BWZ cells was “no binding” in each case.

B14: T1-12 (antibody, IgG1, V domains shown)
VH: QLQLQESGPGLVKPSETLSLTCTVSGGSISSSSYYWGWIRQPPGKGLEWIGSIYYSGSTYYNPSLKSRVTISVDTSKNQFSLKLSSVTAADTAVYYCARGGGYPWEAFDYWGKGTTVTVSS
VL: EIVLTQSPATLSLSPGERATLSCRASQSVSSYLAWYQQKPGQAPRLLIYDASNRATGIPARFSGSGSGTDFTLTISSLEPEDFAVYYCQQYTSWPLTFGGGTKVEIK
notes: huIgG1; also called TI-12; ADI-19079
In the case of B14, the binding result with mouse TREM2 on BWZ cells and in the assay with human TREM2 on BWZ cells was “no binding” in each case.

B15: T1-79 (antibody, IgG1, V domains shown)
VH: QLQLQESGPGLVKPSETLSLTCTVSGGSISSSSYYWGWIRQPPGKGLEWIGSIYYSGSTYYNPSLKSRVTISVDTSKNQFSLKLSSVTAADTAVYYCARLGDGYRIWADYWGQGTLVTVSS
VL: not shown
notes: huIgG1; also called TI-79; ADI-19156
B15: the binding result with mouse TREM2 on BWZ cells and with human TREM2 on BWZ cells was “no binding” each time.

B16: T1-14 (antibody, IgG1, V domains shown)
VH: QVQLVESGGGVVQPGRSLRLSCAASGFTFSSYGMHWVRQAPGKGLEWVAVISYDGSNKYYADSVKGRFTISRDNSKNTLYLQMNSLRAEDTAVYYCARRSSGDYLDVWGQGTMVTVSS
VL: not shown
notes: huIgG1; also called TI-14; ADI-19081
Regarding B16, the binding result with mouse TREM2 on BWZ cells and in the assay with human TREM2 on BWZ cells was “no binding” each time.

B17: T1-33 (antibody, IgG1, V domains shown)
VH: QVQLVESGGGVVQPGRSLRLSCAASGFTFSNYGMHWVRQAPGKGLEWVAVIWYDGSNKYYADSVKGRFTISRDNSKNTLYLQMNSLRAEDTAVYYCAKGSTHRGSAYGMDVWGQGTTVTVSS
VL: DIQMTQSPSSVSASVGDRVTITCRASQGISSWLAWYQQKPGKAPKLLIYAASSLQSGVPSRFSGSGSGTDFTLTISSLQPEDFATYYCQQINDHPFTFGGGTKVEIK
notes: huIgG1; also called TI-33; ADI-19107
As to B17, the binding result in the assay with mouse TREM2 on BWZ cells and with human TREM2 on BWZ cells was “no binding” throughout.

B18: T1-7 (antibody, IgG1, V domains shown)
VH: QVQLVQSGAEVKKPGASVKVSCKASGYTFTSYYMHWVRQAPGQGLEWMGIINPSGGSTSYAQKFQGRVTMTRDTSTSTVYMELSSLRSEDTAVYYCARGLIYGDAFDYWGQGTLVTVSS
VL: not shown
notes: huIgG1; also called TI-7; ADI-19073
Take B18: the binding result in the assay with mouse TREM2 on BWZ cells and in the assay with human TREM2 on BWZ cells was “no binding” in each case.

B19: T1-77 (antibody, IgG1, V domains shown)
VH: QVQLQESGPGLVKPSETLSLTCAVSGYSISSGYYWAWIRQPPGKGLEWIGSIYHSGSTYYNPSLKSRVTISVDTSKNQFSLKLSSVTAADTAVYYCARGGPYPWSGWFDPWGQGTLVTVSS
VL: EIVMTQSPATLSVSPGERATLSCRASQSVGSNLAWYQQKPGQAPRLLIYGASTRATGIPARFSGSGSGTEFTLTISSLQSEDFAVYYCQQHDVWPYTFGGGTKVEIK
notes: huIgG1; also called TI-77; ADI-19154
Turning to B19, the binding result with mouse TREM2 on BWZ cells and in the assay with human TREM2 on BWZ cells was “no binding” throughout.

B20: T1-4 (antibody, IgG1, V domains shown)
VH: QVQLVQSGAEVKKPGSSVKVSCKASGGTFSSYAISWVRQAPGQGLEWMGGIIPIFGTANYAQKFQGRVTITADESTSTAYMELSSLRSEDTAVYYCARHYYYGYAYFDLWGRGTLVTVSS
VL: EIVMTQSPATLSVSPGERATLSCRASQSVSSNLAWYQQKPGQAPRLLIYGASTRATGIPARFSGSGSGTEFTLTISSLQSEDFAVYYCQQFNNHPITFGGGTKVEIK
notes: huIgG1; also called TI-4; ADI-19070
For B20, the binding result with mouse TREM2 on BWZ cells and in the assay with human TREM2 on BWZ cells was “no binding” each time.
